Target: H3K4AK9me2 peptide (UniProt P59226)
Test: ITC; reference is the H3K9me2 peptide

B1: SHH1 SAWADEE domain (residues 125-258) (protein)
chain: ADLAFEAKSARDYAWYDVSSFLTYRVLRTGELEVRVRFSGFDNRHDEWVNVKTSVRERSIPVEPSECGRVNVGDLLLCFQEREDQALYCDGHVLNIKRGIHDHARCNCVFLVRYELDNTEESLGLERICRRPEE
Which fold weaker affinity than with the H3K9me2 peptide does the source give for B1 here?
The fold weaker affinity than with the H3K9me2 peptide was 30 fold.
